From paper PMC6048556

Key:
[1] = target: PIP30/FAM192A (endogenous) (human (endogenous in U2OS, HeLa, U937)) (UniProt Q9GZU8); experiment: co-IP
[2] = target: PA28γ (endogenous) (human (endogenous in U2OS, HeLa, U937)) (UniProt P61289); experiment: co-IP

UniProt Q9GZU8, sequence (Q9GZU8 whole entry): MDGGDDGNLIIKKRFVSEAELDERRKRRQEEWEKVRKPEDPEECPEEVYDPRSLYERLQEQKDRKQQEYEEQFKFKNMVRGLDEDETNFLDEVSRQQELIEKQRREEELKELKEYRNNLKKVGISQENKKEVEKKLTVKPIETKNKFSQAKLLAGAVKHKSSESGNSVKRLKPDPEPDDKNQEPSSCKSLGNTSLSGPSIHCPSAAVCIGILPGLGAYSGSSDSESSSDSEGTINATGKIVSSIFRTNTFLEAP

With “PA28γ (endogenous) (from UniProt P61289 1-254) (natural protein)” as the substance, how does the percent coprecipitated [1] read?
The percent coprecipitated was over 70%.

“PIP30/FAM192A (endogenous) (from UniProt Q9GZU8 1-254) (natural protein)” was tested. Which percent coprecipitated [2] did it give?
The percent coprecipitated was over 70%.
